Data: the supplement of paper PMC7125110
± gives the standard error. For some of these results: This sample holds only a part of the variants without activity.

B1: glmS ribozyme (parent)
chain: AUAAAAGCGCCAGAACUACAGAAAUGUAGUUGACGAGGAGGAGGUUUAUCGAAUUUUCGGCGGAUGCCUCCAAA

Assays:
Conditions in all cases: with glucosamine-6-phosphate
glucosamine-6-phosphate [1] = variants of: B1; experiment: kcat; higher = faster cleavage; RNA array
Method in brief: (§1)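 E. coli RNA polymerase transcribed barcoded ribozyme variants in situ on sequenced MiSeq chips, which were tracked via a hybridised Cy3 probe at 37 °C. Tiles were imaged over ~14 h after glucosamine-6-phosphate (40 μM to 10 mM) in HEPES/KCl/Mg(OAc)2 buffer was flowed in. Normalised per-tile medians were fit to one- or two-exponential decays for kobs, and kcat and KM came from weighted Michaelis–Menten fits.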

glucosamine-6-phosphate [2] = variants of: B1; experiment: KM; higher = weaker cofactor use; RNA array
Method in brief: as §1

glucosamine-6-phosphate [3] = variants of: B1; experiment: self-cleavage kobs at 10000 uM GlcN6P; higher = faster cleavage; RNA array
Method in brief: as §1

glucosamine-6-phosphate [4] = variants of: B1; experiment: self-cleavage kobs at 40 uM GlcN6P; higher = faster cleavage; RNA array
Method in brief: as §1

glucosamine-6-phosphate [5] = variants of: B1; experiment: self-cleavage kobs at 160 uM GlcN6P; higher = faster cleavage; RNA array
Method in brief: as §1

glucosamine-6-phosphate [6] = variants of: B1; experiment: self-cleavage kobs at 640 uM GlcN6P; higher = faster cleavage; RNA array
Method in brief: as §1

glucosamine-6-phosphate [7] = variants of: B1; experiment: self-cleavage kobs at 2500 uM GlcN6P; higher = faster cleavage; RNA array
Method in brief: as §1

AUAAAAGCGCCAGAACUACAGAAAUGUAAUUGACGAGGAGGAGGUUUAUCGAAUUUACGGCGGAUGCCUCCAAA [G29A U57A] was tested, and the kcat (glucosamine-6-phosphate [1]) was 4e-05 ± 1.6e-06 s⁻¹, the KM (glucosamine-6-phosphate [2]) was 877 ± 180 µM and the “self-cleavage kobs at 10000 uM GlcN6P” value (glucosamine-6-phosphate [3]) was 3.64e-05 ± 1.7e-05 s⁻¹.

For AUAAAAUCGUCAGAACUACAGAAAUGUAGUUGACGAAGAGGAGGUUUAUCGAAUUUUCGGCGGAUGACUCCAAA [G7U C10U G37A C67A], the kcat (glucosamine-6-phosphate [1]) was 3.55e-05 ± 1.6e-05 s⁻¹.

AUAAAAGCGCCAGAUCUACAGAAAUGUAGUUGACGAGUAGGAGGUUUAUCGAAUUUUCGGCGGAUGCCUCCAAA [A15U G38U] was tested, and the kcat (glucosamine-6-phosphate [1]) was under 1e-05 s⁻¹, the “self-cleavage kobs at 40 uM GlcN6P” value (glucosamine-6-phosphate [4]) was under 1e-05 s⁻¹ and the “self-cleavage kobs at 160 uM GlcN6P” value (glucosamine-6-phosphate [5]) was under 1e-05 s⁻¹.

For AUAAAAGCGCGAGAACUACAGAAAUGUAGUUGACGAGGAGGAGGUUUAUCGAAUUUUCGGCGGAUGGCUGCAAA [C11G C67G C70G], the kcat (glucosamine-6-phosphate [1]) was 5.32e-05 ± 2.1e-05 s⁻¹ and the “self-cleavage kobs at 640 uM GlcN6P” value (glucosamine-6-phosphate [6]) was 8.18e-05 ± 2.2e-05 s⁻¹.

For AUAAAAGCGCCAGUACUACAGAAAUGUAGUUCACGAGGAGGAGGUUUAUCGAAUUUUCGGCGGAUGCCUCCAAA [A14U G32C], the kcat (glucosamine-6-phosphate [1]) was 0.000397 ± 4e-05 s⁻¹, the KM (glucosamine-6-phosphate [2]) was 3050 ± 580 µM and the “self-cleavage kobs at 640 uM GlcN6P” value (glucosamine-6-phosphate [6]) was 6.36e-05 ± 8.6e-06 s⁻¹. The “self-cleavage kobs at 2500 uM GlcN6P” value (glucosamine-6-phosphate [7]) was 0.000199 ± 1.9e-05 s⁻¹ and the “self-cleavage kobs at 10000 uM GlcN6P” value (glucosamine-6-phosphate [3]) was 0.000294 ± 2.6e-05 s⁻¹.

In the case of AUAAAAGCGCCAGAGCUACAGAAAUGUAGUUGACGAGGACGAGGUUUAUCGAAUUUUCGGCGGAUGCCUCCAAA [A15G G40C], the kcat (glucosamine-6-phosphate [1]) is reported as 0.00522 ± 0.0011 s⁻¹, the KM (glucosamine-6-phosphate [2]) is reported as 1800 ± 590 µM and the “self-cleavage kobs at 40 uM GlcN6P” value (glucosamine-6-phosphate [4]) is reported as 0.000151 ± 1.6e-05 s⁻¹. The “self-cleavage kobs at 160 uM GlcN6P” value (glucosamine-6-phosphate [5]) was 0.000354 ± 6.3e-05 s⁻¹, the “self-cleavage kobs at 640 uM GlcN6P” value (glucosamine-6-phosphate [6]) was 0.00122 ± 0.00017 s⁻¹ and the “self-cleavage kobs at 2500 uM GlcN6P” value (glucosamine-6-phosphate [7]) was 0.0027 ± 0.00028 s⁻¹. For the same variant, the “self-cleavage kobs at 10000 uM GlcN6P” value (glucosamine-6-phosphate [3]) was 0.00506 ± 0.00049 s⁻¹.

In the case of AUAAAAGCGCCAGAACUACAGAAAUGUAGUUGACGAGGAGGAGGUUUAUCGAAUUUUCGGAGGAUGACUCCAAA [C61A C67A], the kcat (glucosamine-6-phosphate [1]) is reported as 6.65e-05 ± 1.4e-05 s⁻¹, the “self-cleavage kobs at 160 uM GlcN6P” value (glucosamine-6-phosphate [5]) is reported as 5.31e-05 ± 1.5e-05 s⁻¹ and the “self-cleavage kobs at 640 uM GlcN6P” value (glucosamine-6-phosphate [6]) is reported as 5.15e-05 ± 1.8e-05 s⁻¹. The “self-cleavage kobs at 2500 uM GlcN6P” value (glucosamine-6-phosphate [7]) was 7.72e-05 ± 1.8e-05 s⁻¹.

With AUAAAAGCGCCAGAACUACAGAAAUGUAGUUGACGGGGAGGAGGUUUAUCGAAGUUUCGGCGGAUGCCUCCAAA [A36G U54G] the kcat (glucosamine-6-phosphate [1]) was under 1e-05 s⁻¹ and the “self-cleavage kobs at 40 uM GlcN6P” value (glucosamine-6-phosphate [4]) was under 1e-05 s⁻¹.

In the case of AUAAAAGCGCCGGAACUACAGAAAUGUAGUUGACGAGGAGGAGGUUUAUCGAAGUUUCGGCGGAUGCCUCCAAA [A12G U54G], the kcat (glucosamine-6-phosphate [1]) is reported as 0.000855 ± 0.00011 s⁻¹, the KM (glucosamine-6-phosphate [2]) is reported as 2260 ± 460 µM and the “self-cleavage kobs at 160 uM GlcN6P” value (glucosamine-6-phosphate [5]) is reported as 6.55e-05 ± 1.5e-05 s⁻¹. The “self-cleavage kobs at 640 uM GlcN6P” value (glucosamine-6-phosphate [6]) was 0.000179 ± 2.1e-05 s⁻¹, the “self-cleavage kobs at 2500 uM GlcN6P” value (glucosamine-6-phosphate [7]) was 0.000475 ± 5.8e-05 s⁻¹ and the “self-cleavage kobs at 10000 uM GlcN6P” value (glucosamine-6-phosphate [3]) was 0.00064 ± 0.00017 s⁻¹.

With AUAAAAGCGCCAGAAUUACAGAAAUGUAGUUAGCGAGGAGGAGGUUUAUCGAAUUUUUGGCGGAUGCCUGCAAA [C16U G32A A33G C58U C70G] the kcat (glucosamine-6-phosphate [1]) was 3.69e-05 ± 8.5e-06 s⁻¹.

For AUAAAAGCGCCAGAACUACAGAAAUGUAGCUGACGAGGAGGAGGUUUAUCGAAUUUUCGGCGGAUGCCCCCAAA [U30C U69C], the kcat (glucosamine-6-phosphate [1]) was 0.00014 ± 1.4e-05 s⁻¹, the KM (glucosamine-6-phosphate [2]) was 591 ± 210 µM and the “self-cleavage kobs at 160 uM GlcN6P” value (glucosamine-6-phosphate [5]) was 3.85e-05 ± 1.7e-05 s⁻¹. For the same variant, the “self-cleavage kobs at 640 uM GlcN6P” value (glucosamine-6-phosphate [6]) was 6.58e-05 ± 1e-05 s⁻¹, the “self-cleavage kobs at 2500 uM GlcN6P” value (glucosamine-6-phosphate [7]) was 0.000129 ± 1.3e-05 s⁻¹ and the “self-cleavage kobs at 10000 uM GlcN6P” value (glucosamine-6-phosphate [3]) was 0.000122 ± 1.4e-05 s⁻¹.
